This is an account of results in patent US5786328, “Use of kunitz type plasma kallikrein inhibitors” (Genentech, Inc., dated 1998).

Where no end group is shown, it is not given here.

Targets include Human thrombin (human, UniProt P00734); Human plasmin (human, UniProt P00747); Human Factor Xa (human, UniProt P00742).
Common to all, as to assay: cell-based or functional assay
In the next test the target is T1, Human Factor XIIa (human, UniProt P00748).
T1 sequence 1: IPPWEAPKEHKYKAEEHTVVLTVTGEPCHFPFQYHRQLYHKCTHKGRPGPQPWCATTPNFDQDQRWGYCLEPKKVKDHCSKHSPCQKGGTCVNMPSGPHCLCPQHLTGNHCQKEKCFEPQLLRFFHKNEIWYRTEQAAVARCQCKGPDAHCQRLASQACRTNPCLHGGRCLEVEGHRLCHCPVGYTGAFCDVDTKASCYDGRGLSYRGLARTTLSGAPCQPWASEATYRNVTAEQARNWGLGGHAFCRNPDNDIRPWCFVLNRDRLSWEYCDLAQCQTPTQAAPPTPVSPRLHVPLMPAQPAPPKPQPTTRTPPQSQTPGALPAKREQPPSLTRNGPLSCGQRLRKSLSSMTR
T1 sequence 2: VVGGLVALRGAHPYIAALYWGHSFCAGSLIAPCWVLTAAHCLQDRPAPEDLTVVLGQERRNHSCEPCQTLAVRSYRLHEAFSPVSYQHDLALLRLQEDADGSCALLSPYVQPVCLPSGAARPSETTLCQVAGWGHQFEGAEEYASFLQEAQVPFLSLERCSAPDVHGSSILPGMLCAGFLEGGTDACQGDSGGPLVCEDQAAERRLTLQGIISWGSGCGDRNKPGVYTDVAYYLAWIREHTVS

Test [1] addresses Human activated protein C (human, UniProt P04070).

B1: APPI (Alzheimer's amyloid β-protein precursor inhibitor) (other)
chain: VREVCSEQAETGPCRAMISRWYFDVTEGKCAPFFYGGCGGNRNNFDTEEYCMAVCGSA
modifications: not fully specified (bridges); ends and bridges not checked
Take B1: the “fraction of remaining proteolytic activity with 100 nM inhibitor” value is 0.97 fraction of uninhibited rate in the test with Human Factor XIIa; 0.92 fraction of uninhibited rate in the test with Human thrombin; 0.62 fraction of uninhibited rate with Human plasmin; 0.87 fraction of uninhibited rate in test [1]; 0.89 fraction of uninhibited rate with Human Factor Xa.
